Measurements as given in patent EP4786493A1.
Positions count from the first letter of the chain named.

B1: AHP29153 (antibody, V domains shown)
VH: QLQQVESGGGLVQPGGSLRLSCAASRNIGILSTMGWYRQAPGKQRELVATITRGGSTNYGEFVKGRFTISRDNAKNTVYLQMNSLKPEDTAVYYCNVDESWLGTQSYWGRGTTVTVSS
VL: QSVLTQPASVSGSPGQSITISCTGTSSDVGGYKYVSWYQQPPGKAPKLIIYEVTKRPSGVPDRFSGSKSGNTASLTVSGLQAEDEADYYCLSYAGSNNVFGTGTKLTVL
B2: AHP31548 (antibody, V domains shown)
VH: B1 VH with L2V, Q4L, V5M, E6Q
VL: QSALTQPPSASGSPGQSVTISCTGTSSDIGTYNFVSWYQQHPGKAPKLIIYEVSKRPSGVPDRFSGSKSGNTASLTVSGLQAEDEADYYCKSYPRVFGTGTKLTAL
B3: AHP32913 (antibody, V domains shown)
VH: B1 VH with L2V, Q4L, V5M, E6Q, T113Q
VL: QAVVTQEPSLTVSPGGTVTLTCGSSTGPVTSGHYPHWYQQKPGQAPKTLIFDTSHKHPWTPAQFSGSLLGGKAALTLSGAHPEDEAEYYCLLSYSGVRVFGGGTQLIIL
B4: AHP32919 (antibody, V domains shown)
VH: QVQLQESGGGVVQPGGSLRLSCAASQSIGLLSTMGWYRQAAGKQRELVATITRGGSTNYGEFVKGRFTISRDNAKNTVYLQMNSLKPEDTAVYYCTADESWLGTQSYWGRGTRVTVSS
VL: QAGLTQPPSASGTPGQGVTISCSGSSSNIGSNSVNWYQQLPGTAPKLLMHSNNERSSGVPDRFSGSKSGSSASLAISGLQSEDAADYFCGAWDDSLNGYVFGTGTKLTVL
B5: AHP32982 (antibody, V domains shown)
VH: B1 VH with L2V, Q4L, E6Q, T112P, T113L
VL: DIVMTQSPSSVSASVGDRVTITCRASQGISSWLAWYQQKPGKAPKLLIYAASSLQSGVPSRFSGSGSGTDFTLTISSLQPEDFATYYCQQANSFPLTFGGGTKVEIK
B6: AHP30826 (antibody, V domains shown)
VH: QVQLQQSGGGSVQAGGSLRLSCAASGTILSINAMGWYRQAPGKQRELVATITTGGNANYAHSVKGRFTISRDNAKNTVYLQMNNLKPEDTAVYYCNAEQVVVGFLQAYDVWGQGTTVTVSS
VL: DVVMTQSPLSLPVTLGQAASISCRSSQSLVHGDGNTYLNWIQQRPGQSPRRLIYKVSNRDSGVPDRFSGSGSGTDFTLKISRVEAEDVGVYYCMQGTHWPSTFGPGTKVDIK

What follows are binders tested against murine Claudin 18.2 expressed on HEK293 cells (murine) (UniProt P56857) (assay: flow cytometry on HEK293 cells expressing murine Claudin 18.2).
murine Claudin 18.2 expressed on HEK293 cells (murine), sequence (P56857 whole entry): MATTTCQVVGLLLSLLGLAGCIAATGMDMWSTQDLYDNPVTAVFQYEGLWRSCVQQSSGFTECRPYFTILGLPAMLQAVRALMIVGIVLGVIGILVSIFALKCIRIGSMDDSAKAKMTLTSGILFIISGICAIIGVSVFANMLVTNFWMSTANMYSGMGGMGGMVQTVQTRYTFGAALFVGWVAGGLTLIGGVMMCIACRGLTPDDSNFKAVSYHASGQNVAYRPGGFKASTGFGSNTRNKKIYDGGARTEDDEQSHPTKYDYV

Compared with B1, B2 is 2.7-fold lower in EC50: 4.45 nM for the first, 1.67 nM for the second.

B3 and B4 are within 1.5-fold of each other in EC50: 0.728 nM for the first, 0.772 nM for the second.

B5 and B6 are within 1.5-fold of each other in EC50: 4.03 nM for the first, 3.44 nM for the second.
